Laboratory results: paper PMC10214663

Biological target: FGF4-Fc (human) (UniProt P08620)
Experiment: BLI; Octet RED K2; FGF4-Fc (25 µg/mL) on Protein-A sensors, galectins at 0.2 µM to 6 µM; heterogeneous ligand (2:1) model; steady-state analysis for galectin-1

Sequence of FGF4-Fc (human) (P08620 31-206): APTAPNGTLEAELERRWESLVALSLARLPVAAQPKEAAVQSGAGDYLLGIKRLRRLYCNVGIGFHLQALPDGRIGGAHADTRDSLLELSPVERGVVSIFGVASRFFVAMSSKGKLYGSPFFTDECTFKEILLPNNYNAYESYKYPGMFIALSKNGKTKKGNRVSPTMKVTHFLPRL

- KD1: 724 nM
- KD2: 140 nM
- KOff1: 0.0755 s⁻¹
- KOff2: 0.000115 s⁻¹
- Kon1: 104000 M⁻¹ s⁻¹
- Kon2: 823 M⁻¹ s⁻¹
Substance: galectin-8 (natural protein)
